# Assay results: patent US20220362368A1
# How the values were obtained:
# [1] = target: SpAQ9,10K/G29F/D36,37A (Staphylococcus aureus) (UniProt P02976); assay: ELISA, OD 450 against log10(1/dilution of 3F6), initial 0.05 mg/mL
# [2] = target: SpAKKAA (Staphylococcus aureus); assay: as above
# human IgG [3] = assay: method and unit not given (binding affinity of the variants to human IgG)
# human IgE = assay: method and unit not told (binding affinity of the variants to human IgE)
# human IgG [4] = assay: SPR, test article on chip, human IgG in flow
# [5] = target: Fcγ fragment of human IgG (human); assay: BLI, test article on Ni-NTA sensor, Fc fragment of human IgG in solution
# [6] = target: F(ab)2 fragment of human IgG; assay: SPR, test article on chip, F(ab)2 fragment of human IgG in flow
Substance,Ka (human IgG [4]) [M⁻¹],further results
3F6 (antibody),,EC50 (read off the curve) [1]: 6 ng/mL; EC50 (read off the curve) [2]: 6 ng/mL
SpAKKAA (from UniProt A0A0H3K686 37-327),502000,human IgG affinity (human IgG [3]): 6.6e-05; human IgE affinity (human IgE): 6.57e-08; Ka [5]: 32.9 M⁻¹; Ka [6]: 82700 M⁻¹
"SpAQ9,10K/G29A (from UniProt A0A0H3K686 37-327)",1.13e+06,
"SpAQ9,10K/G29A/D36,37A (from UniProt A0A0H3K686 37-327)",178000,human IgG affinity (human IgG [3]): 0.000143; human IgE affinity (human IgE): 3.43e-06
"SpAQ9,10K/G29C (from UniProt A0A0H3K686 37-327)",174000,
"SpAQ9,10K/G29D (from UniProt A0A0H3K686 37-327)",548000,
"SpAQ9,10K/G29E (from UniProt A0A0H3K686 37-327)",318000,
"SpAQ9,10K/G29F (from UniProt A0A0H3K686 37-327)",346000,
"SpAQ9,10K/G29F/D36,37A (from UniProt P02976 37-327)",372000,human IgG affinity (human IgG [3]): 0.0124; human IgE affinity (human IgE): 2.02e-05
"SpAQ9,10K/G29H (from UniProt A0A0H3K686 37-327)",144000,
"SpAQ9,10K/G29I (from UniProt A0A0H3K686 37-327)",1.01e+06,
"SpAQ9,10K/G29K (from UniProt A0A0H3K686 37-327)",974000,
"SpAQ9,10K/G29L (from UniProt A0A0H3K686 37-327)",315000,
"SpAQ9,10K/G29M (from UniProt A0A0H3K686 37-327)",389000,
"SpAQ9,10K/G29N (from UniProt A0A0H3K686 37-327)",623000,
"SpAQ9,10K/G29P (from UniProt A0A0H3K686 37-327)",340000,

Substance,Ka (human IgG [4]) [M⁻¹],further results
"SpAQ9,10K/G29Q (from UniProt A0A0H3K686 37-327)",206000,
"SpAQ9,10K/G29R (from UniProt A0A0H3K686 37-327)",606000,
"SpAQ9,10K/G29R/D36,37A (from UniProt A0A0H3K686 37-327)",681000,
"SpAQ9,10K/G29S (from UniProt A0A0H3K686 37-327)",940000,
"SpAQ9,10K/G29T (from UniProt A0A0H3K686 37-327)",198000,
"SpAQ9,10K/G29V (from UniProt A0A0H3K686 37-327)",435000,
"SpAQ9,10K/G29W (from UniProt A0A0H3K686 37-327)",451000,
"SpAQ9,10K/G29Y (from UniProt A0A0H3K686 37-327)",837000,
"SpAQ9,10K/S33A/D36,37A (from UniProt A0A0H3K686 37-327)",1.88e+06,
"SpAQ9,10K/S33C (from UniProt P02976 37-327)",458000,
"SpAQ9,10K/S33D (from UniProt P02976 37-327)",382000,
"SpAQ9,10K/S33E (from UniProt A0A0H3K686 37-327)",49600,Ka [5]: 32.7 M⁻¹; Ka [6]: 41.2 M⁻¹
"SpAQ9,10K/S33E/D36,37A (from UniProt P02976 37-327)",56800,
"SpAQ9,10K/S33E/D36,37A/G29A (from UniProt P02976 37-327)",189000,
"SpAQ9,10K/S33E/D36,37A/G29F (from UniProt P02976 37-327)",1.48e+06,
"SpAQ9,10K/S33E/D36,37A/G29R (from UniProt P02976 37-327)",1.02e+06,
